These results are taken from the DeepSol protein solubility set.

A short description of this data set: soluble on expression in E. coli; label from the status in PepcDB or PDB records.
Consider “MLRIAFASALRFVRRHSSVLQADFEGGVSQSHISRLERGESSVTLERLEEIAAHLNVHPLSLIALTWGASEQIPPAELLERVRRELESVEGLLRPIAIDDQPAVHPRIIEAEKVRNEVQRLKALGHTKAEISRLMGIAKSTAARHW”, for which the “soluble on expression in E. coli” value was “not soluble”.

For the sequence “MLRITELKLPIDHPEEDLRVALLQHLGIDSSELLDFTLFKRSYDARKKSSELCFIYTIDFQVKDEAALLRKLANDRHVGPAPDVSYKVVGHAPEGLSERPIVVGFGPCGIFAGLLLAQMGFKPIILERGTEVRQRTKDTWALWRKNVLNAESNVQFGEGGAGTFSDGKLYSQIKDPKFIGRKVLHEFVKAGAPEEILYVSKPHIGTFRLTGVVENMRHQIEALGGEVRFQQRVTDLMIEDGQLLGVQLDSGEQIESRHVILALGHSARDTFRMLHGRGVFMEAKPFSVGFRIEHPQSLIDRARLGKYAGHPKLGAADYKLVHHASNGRSVYSFCMCPGGTVVAATSEPGRVVTNGMSQYSRNERNANSGIVVGISPEQDFPGSPLAGIELQERLESHAYLLGGSNYEAPAQLVGDFIAGRASTALGSVEPSYKPGVKLVDLAEALPAFAIEAIREALPAFDKQIKGFSLHDAVLTGIETRTSAPLRITRGPTMQSLNTKGLYPAGEGAGYAGGILSAGVDGIRVAEALVRDMLGIEGLEHHHHHH”, the “soluble on expression in E. coli” value is given as “soluble”.

For the sequence “MLRKQVYLTPEEEAKLKRLARATGRTEAEILRLALDLLPEEEAPLLLALAEEGLLEVPERAVTPARMEEAYRRYLDRVAGRGLGLSKAVLADREGR”, the “soluble on expression in E. coli” value is recorded as “soluble”.

In the case of “MLRTEHYAFLPCISRALEERDSLGIRRELRARQQRLSMQQSRSKLGRVCVTGANSPLGQELVGALTRTPDPSLRPDAIGVIGARDPIESHSAGAGLHFPGPGVDFLECAATDLEHYNPRTLFSINDDDLGLRRRSIFRENQVVIDLLRAQGETNEPRSKTRLVLVTLLGCGDSEDAIPSQAFDVLRPLLLELSRVEQYVRESGLPYTIVRPGALEHGDADSRAIVSESKVGFGTIHRSTLAHLLLNVAASEKAVNKTLMALDMNRLLVAAPYVRPFEVWESPPFEVFDL”, the “soluble on expression in E. coli” value is “soluble”.

“MLRTQAARLICNSRVITAKRTFALATRAAAYSRPAARFVKPMITTRGLKQINFGGTVETVYERADWPREKLLDYFKNDTFALIGYGSQGYGQGLNLRDNGLNVIIGVRKDGASWKAAIEDGWVPGKNLFTVEDAIKRGSYVMNLLSDAAQSETWPAIKPLLTKGKTLYFSHGFSPVFKDLTHVEPPKDLDVILVAPKGSGRTVRSLFKEGRGINSSYAVWNDVTGKAHEKAQALAVAIGSGYVYQTTFEREVNSDLYGERGCLMGGIHGMFLAQYDVLRENGHSPSEAFNETVEEATQSLYPLIGKYGMDYMYDACSTTARRGALDWYPIFKNALKPVFQDLYESTKNGTETKRSLEFNSQPDYREKLEKELDTIRNMEIWKVGKEVRKLRPENQ”: the “soluble on expression in E. coli” value was “not soluble”.

As for “MLRVIVESASNIPKTKFGKPDPIVSVIFKDEKKKTKKVDNELNPVWNEILEFDLRGIPLDFSSSLGIIVKDFETIGQNKLIGTATVALKDLTGDQSRSLPYKLISLLNEKGQDTGATIDLVIGYDPP”, the “soluble on expression in E. coli” value is “soluble”.

Take “MLRVYHSNRLDVLEALMEFIVERERLDDPFEPEMILVQSTGMAQWLQMTLSQKFGIAANIDFPLPASFIWDMFVRVLPEIPKESAFNKQSMSWKLMTLLPQLLEREDFTLLRHYLTDDSDKRKLFQLSSKAADLFDQYLVYRPDWLAQWETGHLVEGLGEAQAWQAPLWKALVEYTHQLGQPRWHRANLYQRFIETLESATTCPPGLPSRVFICGISALPPVYLQALQALGKHIEIHLLFTNPCRYYWGDIKDPAYLAKLLTRQRRHSFEDRELPLFRDSENAGQLFNSDGEQDVGNPLLASWGKLGRDYIYLLSDLESSQELDAFVDVTPDNLLHNIQSDILELENRAVAGVNIEEFSRSDNKRPLDPLDSSITFHVCHSPQREVEVLHDRLLAMLEEDPTLTPRDIIVMVADIDSYSPFIQAVFGSAPADRYLPYAISDRRARQSHPVLEAFISLLSLPDSRFVSEDVLALLDVPVLAARFDITEEGLRYLRQWVNESGIRWGIDDDNVRELELPATGQHTWRFGLTRMLLGYAMESAQGEWQSVLPYDESSGLIAELVGHLASLLMQLNIWRRGLAQERPLEEWLPVCRDMLNAFFLPDAETEAAMTLIEQQWQAIIAEGLGAQYGDAVPLSLLRDELAQRLDQERISQRFLAGPVNICTLMPMRSIPFKVVCLLGMNDGVYPRQLAPLGFDLMSQKPKRGDRSRRDDDRYLFLEALISAQQKLYISYIGRSIQDNSERFPSVLVQELIDYIGQSHYLPGDEALNCDESEARVKAHLTCLHTRMPFDPQNYQPGERQSYAREWLPAASQAGKAHSEFVQPLPFTLPETVPLETLQRFWAHPVRAFFQMRLQVNFRTEDSEIPDTEPFILEGLSRYQINQQLLNALVEQDDAERLFRRFRAAGDLPYGAFGEIFWETQCQEMQQLADRVIACRQPGQSMEIDLACNGVQITGWLPQVQPDGLLRWRPSLLSVAQGMQLWLEHLVYCASGGNGESRLFLRKDGEWRFPPLAAEQALHYLSQLIEGYREGMSAPLLVLPESGGAWLKTCYDAQNDAMLDDDSTLQKARTKFLQAYEGNMMVRGEGDDIWYQRLWRQLTPETMEAIVEQSQRFLLPLFRFNQS”: the “soluble on expression in E. coli” value is listed as “soluble”.

“MLSGREMSMSHINYNHLYYFWHVYKEGSVVGAAEALYLTPQTITGQIRALEERLQGKLFKRKGRGLEPSELGELVYRYADKMFTLSQEMLDIVNYRKESNLLFDVGVADALSKRLVSSVLDAAVVEDEQIHLRCFESTHEMLLEQLSQHKLDMIISDCPIDSTQQEGLFSMKIGECGVSFWCTNPLPEKPFPACLEERRLLIPGRRSMLGRKLLNWFNSQGLNVEILGEFDDAALMKAFGATHNAIFVAPSLYANDFYNDDSVVEIGRVENVMEEYHAIFAERMIQHPAVQRICNTDYSALFTPASK”: the “soluble on expression in E. coli” value is “not soluble”.

For the sequence “MLSKKLHDALNDQMNFEFYSAHAYMAMAAYCTAESYDGFANFFLVQAEEERFHAMKLYNYINDRGERAIITGFDNPNNEYESVLNAFEVALEHEREVTKRIYNLSDIAWDEREHATITFLKWFVDEQVEEEASFDSIIQKLKRITSDSNALFMLDAELEKRTFTPPAE”, the “soluble on expression in E. coli” value is given as “not soluble”.

Turning to “MLSKSLALGRRLTKISSSVKSISSITFKTVDGKPRDALTIHNVDFVIDPDEKMVDEYMKVYGNQRFNFKRNDIDIWRKSFKDSYSLWLVCLKGTNKIVQMSHVLNFPPLLSHNDILHQYHGFFWVDPDYRGKDSMAIMDYIEKHRARNQSDNDAGTFLTTAVTMWTKMHGHADYKHIMYVSYYKPDEMQIPEDLNLDGIFLKNATEVPDMDIVKYDNTVFPYERSKYMLNLLRDPEGFGKVAYDNNGKVIGFGNVIIYPSGECVLTPLYADDSKVAQAIFKSILKEIPLNDKKLLRFQIRSIDQCEGGFEWIQPFVKNPIRKEIMGHMAGSSHPPTVNYKKTYANTPYTTCVI”, the “soluble on expression in E. coli” value is given as “not soluble”.

Regarding “MLSLDQIPHHIRHGIVGSRLIQIRGRVTQVTGTLLKAVVPGVRIGELCYLRNPDNSLSLQAEVIGFAQHQALLIPLGEMYGISSNTEVSPTGTMHQVGVGEHLLGQVLDGLGQPFDGGHLPEPAAWYPVYQDAPAPMSRKLITTPLSLGIRVIDGLLTCGEGQRMGIFAAAGGGKSTLLASLIRSAEVDVTVLALIGERGREVREFIESDLGEEGLRKAVLVVATSDRPSMERAKAGFVATSIAEYFRDQGKRVLLLMDSVTRFARAQREIGLAAGEPPTRRGYPPSVFAALPRLMERAGQSSKGSITALYTVLVEGDDMTEPVADETRSILDGHIILSRKLAAANHYPAIDVLRSASRVMNQIVSKEHKTWAGDLRRLLAKYEEVELLLQIGEYQKGQDKEADQAIERMGAIRGWLCQGTHELSHFNETLNLLETLTQ”, the “soluble on expression in E. coli” value is on record as “not soluble”.

“MLSNNVNPVVGLSYRPLPETPPSGQAAAHPSMRLLEPNNDEFVRSVASPRLHHSSEALREVKHDVRQFQASGDRSLQQLRDLEVALNHWEASQPREFAKRGGMVAELRTAIDAYKQQLHEQAPSHANLDVKWLDGLRAGSMALQGDVKVWMQNLEDLHTRRPDEFAARLQQSTDALYSHLEAQWAKQHGTPPTASDVAGMPQWQEYTAMLRERFAGLDTIRPNLTAEENGVAILKTQTQLLALQRAQEALQASLADGVSHQGDVGLLRTQLLAGMVEGLIALQQADDDSALWSRPSAADSGGRLSVEAGAKASTDFEAPASKGELLRGKGISGEAVLEAFANIEMSVSGSRAGAAGEAEGSLRLYGESTARAEVSGSFEPFALSGSIGREEADGDTAASANPVLSLNVSAELSSKLGLEAQGSVTLGSLLKLDAEGRAEVGASAEVSGTAAIDKRSDGLGVRLEGQAEAFAGLKAEGTLTANLLHSKYADAHGLTASVTGSANVGLGATAEGKLVASPGQFEMGGEVGTTLGVGGNIGWNSKVDVNASTAYAYELASAAMARFDALRASQLDHDAKTSGNESQLNRLAANLQSHIDATSQKLDALNSAGVESRIRKVDGFAAGDGAQAAAGLAAQMALVGTGADLSHDIKITALNLRA”: the “soluble on expression in E. coli” value is reported as “not soluble”.

On to “MLSNQQIRNFSRGVGHLRRRAAKNNVIKVRPEELRPFFNQYSVLPNGIQNDADAKLFSKELQPGERKLLFDALRKITADQYNDHKKVVEVTIDHEDLVKVWYINFIPMFVYGCLDEAFLIIGGESINK”, for which the “soluble on expression in E. coli” value is reported as “not soluble”.

For the sequence “MLSRAGKHRQLPSLRASQAEASPICSELEDKHKNVQEPDGISNHFLQEKKFAGSESKEYKRKDVVLYREKLLAPEVTNLVSREQMMMHPRDQYLHVLSPYCYSAIEVSHAVFSIFAYIVCDVNWSREYCSKHTTCKQDFKTMIIAVMREYLSMGEAADISRLPRAAMFNLQQAGQLATPTASGTQRRAEPETYVDLHALSDKINHLKTHCNYQIRRDRAFPPMVNLFEIEPRVPVKMSYFLAECKTYGIHQCLHPVSATVKQIDQAFLPAWKARVLFMLGWMDNFFDEDMDDLKRCIRKAINFKVPLKTWESEEDLMVVILEQNQAKLKLARECLTTISKCEHADPHDWLHCNRKRRERHFIVCEYKNPGIWHSSEILKISLKILRQCMGHATLDLKEVNVKSENKIGSDASPDVPLDKKKLKRQKQKLRKAAEPPEPTPPPPPPVIPVPEAKPCEKCFRTSERCNKANAELKTSLNKIKILEKKLSAEKRAFKENQETWEKKLEELQTELQAKERTIQEFQDKVAPKCAESVSDGFLRDGEELIATFDVTSSNATEEFESECIICREDIDLENGTVQCPRCTEIYHSHCATQWLSQKPTCPKCIFHIGHINEFPSLV”, the “soluble on expression in E. coli” value is listed as “not soluble”.

As for “MLSRICGNGIRLTRTRLQFQPSIVTFRDYSNPAPKRGFLNNLIDNVRDEMQKNKELQEHQQQLKARMQELNESDALKDARKKFEIVEKETLKSSEVVKQKIEELSDHMKKMVHEIQKTEAGKKMTEAGAEALKQARKAAEHVEKVAEKVGDTEVYKHVSTSMKTVKDEIDNIADVRMYSRPEALTKRTDGFDLEKERVVEANDSATDVTLHKDSKWYSGWKNFSESNTYYHKLLDWKIKYDESDNMAVRMMRGVTEKIGSVFSGQNEVSEVLTEIHKIDANFDKQEWLRFCETKIIPNILEAFIRFDLEVLQSWCHERAYTQLSTVVKEYQKMHFSTKDSRIIDINKVEMATGKMMEQGPVLIISFQVYMINVTKNADGKVVEGDPDNPKRINHIWVLCRDVEEYNPALAWKLLEVHMQETPLAL”, the “soluble on expression in E. coli” value was “not soluble”.

Turning to “MLSRLTSRNVLLARNVATAATQERQKIKVDNPVVDLDGDEMTRIIWKEIKNKLILPYLDLDIKYYDLGLEYRDETNDQVTIDAAHAILEHSVGIKCATITPDEARIKEFNLKKMWLSPNGTIRNILGGTVFREPILCKNIPRLVPGWTQPITIGRHAFGDQYKCTDLVIPSGSTLQLLVNKPDGSKDVHNVYDFKKSGGVGLAMYNTDESIKGFAHSCFQYALMKQWPLYLSTKNTILKKYDGRFKDIFQDIYEKKYEADFKNNKIWYEHRLIDDQVAQALKSSGGFVWACKNYDGDVQSDIVAQGYGSLGLMSSVLMCPDGKTIEAEAAHGTVTRHYREHQKGNSTSTNPIASIFAWTRGLHHRGVLDNNEALKTFSLTLEKACIDTVEEGKMTKDLSICIHGTKKGTEKGAYLITEDFLSAIDTKMAELMRQD”, the “soluble on expression in E. coli” value is given as “not soluble”.
